Experimental data published in article PMC3582384 (Biochemistry, 2013).

Key:
[1] = target: A138Y RsLOV variant (Rhodobacter sphaeroides ATCC 17025); test: SEC
RsLOV = RsLOV (Cereibacter sphaeroides, UniProt M1E1F8); test: X-ray crystallography; type: binding; settings: dark state, noncovalent; 1.9 Å
[2] = target: LOV domain protein of Rhodobacter sphaeroides (RsLOV), wild type (Rhodobacter sphaeroides ATCC 17025); test: SEC

Question: For A138Y RsLOV variant (natural protein), which stoichiometry N [1] is on record?
Answer: The stoichiometry N was 2.

Question: With `Cc1cc2nc3c(=O)[nH]c(=O)nc-3n(C[C@H](O)[C@H](O)[C@H](O)COP(=O)(O)O)c2cc1C` [FMN] as the compound, how does the X-ray crystallography (RsLOV) read?
Answer: The X-ray crystallography was “The Val32 side chain does not extend as far into the FMN pocket as Leu”.

Question: “LOV domain protein of Rhodobacter sphaeroides (RsLOV), wild type (natural protein)” was tested. Which stoichiometry N [2] did it give?
Answer: Its stoichiometry N is 2.
